Results reported in the supplement of paper PMC12764529.
± gives the half width of the 95% confidence interval.

assay: folding stability dG unfold from chymotrypsin proteolysis; higher = more stable
Summary of the method: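 Mini-proteins designed to be under 80 residues and free of cysteine were carried in a PA-tagged cDNA display construct and digested with trypsin and with chymotrypsin. Each protease was applied at 11 threefold-diluted concentrations, alongside a no-protease condition, before sequencing. K50 came from Bayesian fitting of the sequencing counts, and unfolding free energy was obtained by comparing it with a sequence-predicted unfolded-state K50 and a shared folded-state K50, for each protease separately or for both together. Designs were retained only if their AlphaFold2 dimer inter-PAE exceeded 15.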

Q: For “SAGGSAGGSASEEEKPPKIKRVTINIPEEELRERFPGNPEWAENIAREAAKEGFDEVEIDINSAGGSAGGSA [r18_441_TrROS]”, which “folding stability dG unfold” value is on record?
A: 0.942 ± 0.12 kcal/mol

Q: With “SAVTFPVPVTVTVPDADGGPPAVTVPVAVPVDPDAVRDAAIERLRRELAEAGRPDVTEEDLARPEFLAARSA [r9_263_TrMRF]” as the sequence, how does the “folding stability dG unfold” value read?
A: 0.622 ± 0.16 kcal/mol

Q: With “SMEPPVPKIKARLVEVREEGERPRALFEIEEIEDAPPEIEELFKRGAKIEVEIPPDYPLKEDEEIEVDPLSA [r9_557_TrMRF]” as the sequence, how does the “folding stability dG unfold” value read?
A: 0.622 ± 0.15 kcal/mol

Q: With “SAGGMTVTVPFTSEEELEAAIEAAPSSLTTVTTTDPARGLRRTLNVDPATRAVVETEEEAVDPEDPALSAGG [r13_945_JUSTAS]” as the sequence, how does the “folding stability dG unfold” value read?
A: -0.377 ± 0.14 kcal/mol

Q: For “SAGGSAGGSAGNADQIKEIARKYAPKNGMKPKDVDIEVEERENPNGKKELHIDVEGEYKNSAGGSAGGSAGG [r11_414_TrROS]”, which “folding stability dG unfold” value is on record?
A: 0.00121 ± 0.46 kcal/mol

Q: For “SAGKSKTITLEIYNKETNIIIKIEIEINGDEVTIKVYAFNKDGKLIAKAEIKFNKKTKKLEIKIEIKKLSAG [r5_747_TrROS_Hall]”, which “folding stability dG unfold” value is on record?
A: 5.07 ± 0.33 kcal/mol

Q: Which “folding stability dG unfold” value does the source give for “SAGGSAGGGGGFRVKAEVKHGGKEYPMEILIDPSEGNINIQMPNGKSITLPLNDVKIDEVEPVNSAGGSAGG [r6_185_TrROS]” here?
A: 0.341 ± 0.29 kcal/mol

Q: For “SAGGSAGGSANQVKVEIEIPRMKMERDPDGGYQMEMRPVKIEIEAPMPEEQADDIAKDLIKSAGGSAGGSAG [r3_487_TrROS]”, which “folding stability dG unfold” value is on record?
A: 0.579 ± 0.045 kcal/mol

Q: With “SAGGSPWIEVEIPFPPGMPADELADFIAEELDENGHDVKVDDVEQDPEEGYMKFRVRDGKSVEIPWSAGGSA [r2_242_TrROS]” as the sequence, how does the “folding stability dG unfold” value read?
A: -0.522 ± 0.28 kcal/mol

Q: Which “folding stability dG unfold” value does the source give for “SAGEVETRTLPDGSVEIRRVERDPNSDQEVETRERVTFDPATGTARVPREVYRGDRWETEERVIALPASAGG [r19_289_JUSTAS]” here?
A: 0.456 ± 0.16 kcal/mol

Q: For “SAGGATTERTFTFPSSVSPEEAAAAVAAEAPPGLRVDVAPVATRADPSGVTTTTLRARFTDPAAPAAASAGG [r13_12_JUSTAS]”, which “folding stability dG unfold” value is on record?
A: 0.297 ± 0.12 kcal/mol

Q: Which “folding stability dG unfold” value does the source give for “SAGGPEKKILVARDSSDPNLPLEKIKEELEKKGFPPAEVTSAATEPLEKAREKAEKEGNPLIVLPVESAGGS [r16_94_JUSTAS]” here?
A: -0.927 ± 0.32 kcal/mol

Q: For “SAGGSAGGSAMPIPKVLVLKDEGTLEEAREAALKYVKEDEKVIVKIGDKEIVIPAEELKKKSAGGSAGGSAG [r3_50_TrMRF]”, which “folding stability dG unfold” value is on record?
A: -0.237 ± 0.5 kcal/mol

Q: Which “folding stability dG unfold” value does the source give for “SAGMTFEEEFVEEVDGGEMVKTKTLYEYDPSTNSITVLEEEVEKIPLPEVAPAPAPPEAMEERGAPGALSAG [r5_393_JUSTAS]” here?
A: 0.254 ± 0.093 kcal/mol

Q: With “SAGGSAGGSAGMEVIINDPEKAKNIPVNSKVKLPNGKEYKVKKVEYNPEIGYVKFIVSPESAGGSAGGSAGG [r11_316_TrMRF]” as the sequence, how does the “folding stability dG unfold” value read?
A: -0.489 ± 0.37 kcal/mol

Q: Which “folding stability dG unfold” value does the source give for “SAGGSAGGWIKLDGKEVYIVIPDGNPEQIAKELKEQFPNGNIKPHPGQNAEEAAKKNKRVIWIPSAGGSAGG [r6_680_TrROS]” here?
A: 0.771 ± 0.16 kcal/mol

Q: For “SAGGSAGGSAGGGMKTKTTISTHPGPGGKTRVLVEVDPKKGLLTWRDPSDPSATTVVPLGSAGGSAGGSAGG [r7_992_JUSTAS]”, which “folding stability dG unfold” value is on record?
A: 0.511 ± 0.23 kcal/mol

Q: For “SAGGSAGGSAGEAAIEAAIAANSPDKDATVALPGGETVRLKFTRDPKVPTLLSLDVEREPPRSAGGSAGGSA [r18_202_JUSTAS]”, which “folding stability dG unfold” value is on record?
A: -0.61 ± 0.29 kcal/mol

Q: Which “folding stability dG unfold” value does the source give for “SATKTINFDEFNDMMNQGDPPMLRHIIKEAREKDPDKEITIRMPKNPMFRDYIKEAFKEEGYPVKITPHSAG [r14_236_TrROS]” here?
A: -0.494 ± 0.36 kcal/mol

Q: For “SAGGSAEEEEITIKLRITVYNEETGKPVKEIEIEIKVKKGQTLEQILEEAKKLLEEKGYKIVEIEISAGGSA [r15_195_TrROS_Hall]”, which “folding stability dG unfold” value is on record?
A: 4.42 ± 0.31 kcal/mol

Q: For “SAGGSAGGSAGGEVPADAVIEERLEVTDVSTGEKRRFRRTVTVEVDPDGSLRVRTEVEEESAGGSAGGSAGG [r7_19_JUSTAS]”, which “folding stability dG unfold” value is on record?
A: -0.184 ± 0.63 kcal/mol

Q: With “SAGGSAGGLLPDQRVRLRLTRTSPDGEPEEATVELTNIPSSITPSSTLTFPGEGDTWEVEEITTSAGGSAGG [r6_560_TrMRF]” as the sequence, how does the “folding stability dG unfold” value read?
A: -0.184 ± 0.21 kcal/mol

Q: Which “folding stability dG unfold” value does the source give for “SAMIEVYRPPDRALVKLPSGKVEILDDPEAFEARVRAESDLPIRVTPLSPESPEFKALLEEIEKKLKGKSAG [r14_235_JUSTAS]” here?
A: 0.192 ± 0.18 kcal/mol

Q: For “SAGGMKKITIPMKVLEEKFGIPKNTSPEELAKKLNPKEKVEVLSVTSEKSENGEENPTVTVLVIPPKESAGG [r13_723_TrMRF]”, which “folding stability dG unfold” value is on record?
A: 0.0873 ± 0.14 kcal/mol

Q: For “SAGGSAGGSAGPMWRIEVENPNGRTPEIWIPPNMDTPEELVDELKKHFPGLKKVKIEPYPSAGGSAGGSAGG [r11_311_TrROS]”, which “folding stability dG unfold” value is on record?
A: 0.184 ± 0.12 kcal/mol

Q: With “SAGGSAGPMPSTVTTLATAPLPDGTLVVTTLERTPDSVTRTTTTYKPADGSPLGTASTTYPAPAALSAGGSA [r15_716_JUSTAS]” as the sequence, how does the “folding stability dG unfold” value read?
A: 0.808 ± 0.15 kcal/mol

Q: For “SAGGSAGGSAGGSSMKYFTRSASPDTTFTVKTPNGGVVNVTPTAAPGTYKYTFTLPGNSSAGGSAGGSAGGS [r4_360_JUSTAS]”, which “folding stability dG unfold” value is on record?
A: -0.42 ± 0.44 kcal/mol

Q: Which “folding stability dG unfold” value does the source give for “SAGGSAGGSGEYVVVLLREELPDEERYLRRPVPLDAALEALKEGKLVRSSEGREWRFAEYRPESAGGSAGGS [r12_432_TrMRF]” here?
A: -0.0188 ± 0.33 kcal/mol

Q: With “SAGAAAIAEKLGFSPELVEILSVEDVEYTIVVRRTGEPVKMKRPTVKVLVTDPSVPKETTAEVPVAELASAG [r5_517_JUSTAS]” as the sequence, how does the “folding stability dG unfold” value read?
A: -0.807 ± 0.57 kcal/mol

Q: Which “folding stability dG unfold” value does the source give for “SAGGSAGGSAREELVRRAAEEGLPGVRVLAIPPGNREVPAIVEGDKVYSYDLPDDAEVVVASAGGSAGGSAG [r3_244_TrMRF]” here?
A: 0.408 ± 0.08 kcal/mol

Q: With “SAGGSETLELTIEIPGLGQPVSARSTSFDPEKGLWTAEMKSPVPGLRRTLTYDPVTGTVSSTTTLLSAGGSA [r2_147_JUSTAS]” as the sequence, how does the “folding stability dG unfold” value read?
A: 0.341 ± 0.13 kcal/mol

Q: With “SAGGSAMKTAEVVLDVPEEELEAARAAGEGLSAEVRARMEALAAEVRAAGYDEVVLRLRPSSVPLPSAGGSA [r15_304_JUSTAS]” as the sequence, how does the “folding stability dG unfold” value read?
A: -0.0294 ± 0.24 kcal/mol

Q: Which “folding stability dG unfold” value does the source give for “KKRTIEIPFPANGYKVKIEVPEDQGKPIDEEEIQKLLREWHPDMPADDMPAKEIAKYLADEPGIKEVEIERS [r1_463_TrROS]” here?
A: 0.479 ± 0.25 kcal/mol

Q: With “SAGKLVVPILLEFPPGATLEEAKEAVEEAVEKLKESFPNAPDIEIKLVDVKVFKTEDDRYLVLALIEVGSAG [r5_985_TrMRF]” as the sequence, how does the “folding stability dG unfold” value read?
A: 4.51 ± 0.23 kcal/mol

Q: With “SAGMEVVEKIAKELGYENVKVESITPQVSPSGTTTLTITVKISKPGSTKTFTITASPEEIEEEIKKALSSAG [r5_549_JUSTAS]” as the sequence, how does the “folding stability dG unfold” value read?
A: 4.72 ± 0.14 kcal/mol

Q: For “SAGGSAGGSAGGSSARVPFPATGAVLEVRVTPDGRPRVRVFNPATGEVVEFPPGAEVGVSAGGSAGGSAGGS [r4_158_TrMRF]”, which “folding stability dG unfold” value is on record?
A: 0.762 ± 0.036 kcal/mol

Q: For “SAGGSAGGTREIELPGMKISVQKDPNQGKKKIEVEFPNGEEFTMDPGKPPDDLPPPFRRALKEISAGGSAGG [r6_749_TrROS]”, which “folding stability dG unfold” value is on record?
A: -0.176 ± 0.31 kcal/mol

Q: With “SAGGSMTVVTVEARPPDSSETTVTPLTETAPDGRPRAISLEEARARLAAEPDRPVTRVTVRPEAAASAGGSA [r2_192_JUSTAS]” as the sequence, how does the “folding stability dG unfold” value read?
A: 0.452 ± 0.057 kcal/mol

Q: Which “folding stability dG unfold” value does the source give for “SAGGSAGGSAGMKLIEFPPGEEFEEFIKNLPGPIKSVERTKIEPEKVLAKIVLELPPSNLSAGGSAGGSAGG [r11_143_JUSTAS]” here?
A: -0.545 ± 0.36 kcal/mol

Q: Which “folding stability dG unfold” value does the source give for “SAGGSAGGSAGGSMLTVRSSSTTPLPDGSTVTTYEVNDKPYLVRVDPNGPVVTVKPLSLLSAGGSAGGSAGG [r7_772_JUSTAS]” here?
A: -0.367 ± 0.4 kcal/mol

Q: With “SAGGSAGGSAGGDPIRVDDIEPNPDRLEIDIRNFGNGNQKKHTIPPGSPPKIKPGDYIRSAGGSAGGSAGGS [r10_834_TrROS]” as the sequence, how does the “folding stability dG unfold” value read?
A: 0.857 ± 0.12 kcal/mol

Q: Which “folding stability dG unfold” value does the source give for “SAGGPDPYNLKVEEETYPNPDGGEMKIPKIEIPDGRLKIDMEMRNPGNGKEHEHEITIPVKPGQEIFISAGG [r13_190_TrROS]” here?
A: 0.906 ± 0.14 kcal/mol

Q: For “SAGGSAGGSAGGSWRVRIDLPNGKSRTIPIKPGEEVDLNEIADELSDKYNIKSISIEEPSAGGSAGGSAGGS [r4_116_TrROS]”, which “folding stability dG unfold” value is on record?
A: 0.42 ± 0.14 kcal/mol

Q: For “SAGGSAGGSAKAKVLEVEEKPVGGVNRFKIEVPLENGEPQKFYVLVEVPEDGDEKFAVKPGSAGGSAGGSAG [r3_94_TrMRF]”, which “folding stability dG unfold” value is on record?
A: 0.1 ± 0.16 kcal/mol

Q: For “SAGGSAGGSAGGKKININVPAEEMTEEEIKKLIKNLPPDMPIEIEIQPVPPPPPPPPGDKSAGGSAGGSAGG [r7_979_TrROS]”, which “folding stability dG unfold” value is on record?
A: -0.851 ± 0.63 kcal/mol

Q: For “SAGGMIRRITIYITDPGPSAPATTTTITVDVPPDRPDVPDEEVAQRVAESIAPKTGATATVEKIEEVSAGGS [r8_101_JUSTAS]”, which “folding stability dG unfold” value is on record?
A: 0.406 ± 0.071 kcal/mol

Q: With “SAGGSAKLRVAEADFVPGALLEAIEELEKAPAGAEVEVRPGDPLEPKERPVRFVVNEKGELLEVVGSAGGSA [r15_228_TrMRF]” as the sequence, how does the “folding stability dG unfold” value read?
A: -0.619 ± 0.32 kcal/mol

Q: Which “folding stability dG unfold” value does the source give for “SAGGSAGGSAGGSVTIPVPENVKVRIYPPNGGRREVTAAAGATITVPAPGGEEVRIEVETSAGGSAGGSAGG [r7_357_TrMRF]” here?
A: 0.715 ± 0.021 kcal/mol

Q: With “SAGGSAGGSAGAPVEVVITFESPTSRTTRTFPADLPEAEVERLAAALRAAHPEPVRVEPRSAGGSAGGSAGG [r11_515_JUSTAS]” as the sequence, how does the “folding stability dG unfold” value read?
A: -0.981 ± 0.48 kcal/mol
